Data as given in paper PMC6201908, “Affinity, potency, efficacy, and selectivity of neurokinin A analogs at human recombinant NK2 and NK1 receptors” (PLoS ONE, 2018).
Non-standard residues stand in square brackets, D forms with d. No end group written: not given here. NMeL = CN[C@@H](CC(C)C)C(=O)O

Experiments:
[1] = target: T1, NK1 receptor (Homo sapiens, UniProt P25103); test: [3H]-Septide displacement
T1 chain: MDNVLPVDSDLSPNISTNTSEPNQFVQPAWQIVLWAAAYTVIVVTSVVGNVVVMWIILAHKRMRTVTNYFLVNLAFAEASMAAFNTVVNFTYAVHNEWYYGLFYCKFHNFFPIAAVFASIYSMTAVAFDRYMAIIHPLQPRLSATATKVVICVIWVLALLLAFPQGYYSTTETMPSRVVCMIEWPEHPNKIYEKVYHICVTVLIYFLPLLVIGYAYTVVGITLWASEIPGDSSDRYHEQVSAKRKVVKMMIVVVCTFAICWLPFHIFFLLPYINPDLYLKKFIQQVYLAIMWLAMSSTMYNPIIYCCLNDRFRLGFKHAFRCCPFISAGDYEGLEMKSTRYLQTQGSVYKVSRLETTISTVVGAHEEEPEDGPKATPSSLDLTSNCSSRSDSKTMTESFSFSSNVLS

[2] = target: T2, NK2 receptor (Homo sapiens, UniProt P21452); test: [125I]-NKA displacement
T2 chain: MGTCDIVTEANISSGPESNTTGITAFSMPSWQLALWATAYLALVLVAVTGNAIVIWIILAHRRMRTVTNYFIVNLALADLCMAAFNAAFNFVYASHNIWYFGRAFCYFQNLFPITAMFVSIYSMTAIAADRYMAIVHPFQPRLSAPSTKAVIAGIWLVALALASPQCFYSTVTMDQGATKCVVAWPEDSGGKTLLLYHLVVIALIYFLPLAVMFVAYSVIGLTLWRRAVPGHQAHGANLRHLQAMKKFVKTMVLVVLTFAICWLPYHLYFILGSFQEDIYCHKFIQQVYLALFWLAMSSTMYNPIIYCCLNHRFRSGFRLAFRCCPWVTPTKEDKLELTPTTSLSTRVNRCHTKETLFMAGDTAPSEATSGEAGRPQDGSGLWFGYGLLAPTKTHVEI

DKFVG[NMeL]M-NH2 [[Lys5,MeLeu9]-NKA(4-10)]
Ki [1]: 50.1 nM
Ki [2]: 0.2 nM

DRFVGLM-NH2 [[Arg5]-NKA(4-10)]
Ki [1]: 8.3 nM
Ki [2]: 0.31 nM

B1: [Arg5,MeLeu9]-NKA(4-10) (peptide)
chain: DRFVG[NMeL]M-NH2
modifications: N-terminus assumed
SMILES: CSCC[C@H](NC(=O)[C@H](CC(C)C)N(C)C(=O)CNC(=O)[C@@H](NC(=O)[C@H](Cc1ccccc1)NC(=O)[C@H](CCCNC(=N)N)NC(=O)[C@@H](N)CC(=O)O)C(C)C)C(N)=O
Ki [1]: 20.9 nM
Ki [2]: 0.12 nM
